{"source": "paper PMC10052374", "about": "“Jasmonate activates a CsMPK6-CsMYC2 module that regulates the expression of β-citraurin biosynthetic genes and fruit coloration in orange (Citrus sinensis)”", "binders": {"B1": {"name": "CsBCH-probe (dsDNA)", "DNA 1": "AATTTCGAATCTAACAAATGTTTCGTTGATAT", "DNA 2": "ATATCAACGAAACATTTGTTAGATTCGAAATT"}, "B2": {"name": "CsCCD4b-probe (dsDNA)", "DNA 1": "GTACCATACAACTGTGGCACCATAGCTGGATC", "DNA 2": "GATCCAGCTATGGTGCCACAGTTGTATGGTAC"}, "B3": {"name": "CsLCYb-probe (dsDNA)", "DNA 1": "CGACAGTTGGACCACTAGCTTCGTGACCGTTGT", "DNA 2": "ACAACGGTCACGAAGCTAGTGGTCCAACTGTCG"}, "B4": {"name": "CsMPK6-probe (dsDNA)", "DNA 1": "AGCTCTATGTAACAACTGGGATCTATTTGAAA", "DNA 2": "TTTCAAATAGATCCCAGTTGTTACATAGAGCT"}, "B5": {"name": "CsPSY-probe (dsDNA)", "DNA 1": "AAAACTTCAATTGATACTCTTCCACTAATTCT", "DNA 2": "AGAATTAGTGGAAGAGTATCAATTGAAGTTTT"}}, "key": {"[1]": {"biological_target": "CsMYC2-MBP (Citrus sinensis (Newhall orange), UniProt V4SX11 1-519)", "sequence (V4SX11 entry or part of it)": "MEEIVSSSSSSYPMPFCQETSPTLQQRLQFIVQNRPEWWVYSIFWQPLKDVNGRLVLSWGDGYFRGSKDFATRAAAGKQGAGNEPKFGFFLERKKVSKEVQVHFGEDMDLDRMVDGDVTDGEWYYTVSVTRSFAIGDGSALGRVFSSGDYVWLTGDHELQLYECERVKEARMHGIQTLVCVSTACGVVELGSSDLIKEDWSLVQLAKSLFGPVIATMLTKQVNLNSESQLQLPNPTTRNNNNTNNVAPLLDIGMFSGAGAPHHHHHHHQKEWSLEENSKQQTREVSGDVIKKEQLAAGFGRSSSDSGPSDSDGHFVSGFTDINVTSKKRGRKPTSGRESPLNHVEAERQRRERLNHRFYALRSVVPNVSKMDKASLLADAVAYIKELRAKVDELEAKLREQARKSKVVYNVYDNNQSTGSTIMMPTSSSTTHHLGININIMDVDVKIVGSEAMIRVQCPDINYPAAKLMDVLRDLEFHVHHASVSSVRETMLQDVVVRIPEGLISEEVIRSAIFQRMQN", "assay": "EMSA; BLI: PBS, 100 nM biotin probe on SA sensors, CsMYC2-His 62.5-1000 nM, 1:1 fit. DNA pull-down: probe bound to beads in 10 mM Tris-HCl pH 7.5, 1 mM EDTA, 1 M NaCl, 0.1% Tween-20 at RT, then protein 1 h on ice. EMSA: as in Yue et al. 2019, buffer not given", "conditions": "protein: recombinant; tags: MBP (pMAL-C2X); chain copies: 2; label: 3' biotin"}, "[2]": {"biological_target": "CsMYC2-His (Citrus sinensis (Newhall orange), UniProt V4SX11 1-519)", "sequence (V4SX11 entry or part of it)": "as above", "assay": "BLI; BLI: PBS, 100 nM biotin probe on SA sensors, CsMYC2-His 62.5-1000 nM, 1:1 fit. DNA pull-down: probe bound to beads in 10 mM Tris-HCl pH 7.5, 1 mM EDTA, 1 M NaCl, 0.1% Tween-20 at RT, then protein 1 h on ice. EMSA: as in Yue et al. 2019, buffer not given", "conditions": "protein: recombinant; tags: His (pET30A); chain copies: 2; label: 3' biotin"}}}
{"binder": "B1", "values": [{"measurement": "binding result", "setting": "[1]", "result": "binds"}]}
{"binder": "B2", "values": [{"measurement": "Kd", "setting": "[2]", "result": 58, "unit": "nM"}]}
{"binder": "B3", "values": [{"measurement": "binding result", "setting": "[1]", "result": "binds"}]}
{"binder": "B4", "values": [{"measurement": "binding result", "setting": "[1]", "result": "binds"}]}
{"binder": "B5", "values": [{"measurement": "binding result", "setting": "[1]", "result": "binds"}]}
